Measured values from patent publication EP4682169A1 (Gracell Biotechnologies (Shanghai) Co., Ltd., dated 2026).
Where “and” joins values, the source holds several entries; their conditions need not be identical. Identical values can stand only once.

Tests used:
[1] = molecular target: T1, human Claudin18.2 expressed on cells (human, UniProt P56856-2 1-261); assay: flow cytometry on 293FT CLDN18.2-Luc cells, APC anti-mouse IgG Fc
T1 construct: whole, on cells; also called CLDN18.2

[2] = molecular target: T2, Claudin 18.2 VLP (UniProt P56856 1-261); assay: ELISA, coated antigen 200 ng/well
T2 construct: Antigen coated on ELISA plates, 200 ng/well; source and construct not described; also called Claudin18.2-VLP protein; Claudin18.2 VLP antigen

[3] = molecular target: T2, Claudin 18.2 VLP; assay: ELISA, coated antigen 200 ng/well; antibody 0.37 ug/mL
[4] = molecular target: T2, Claudin 18.2 VLP; assay: ELISA, coated antigen 200 ng/well; antibody 0.014 ug/mL
[5] = molecular target: T2, Claudin 18.2 VLP; assay: ELISA, coated antigen 200 ng/well; antibody 0.041 ug/mL
[6] = molecular target: T2, Claudin 18.2 VLP; assay: ELISA, coated antigen 200 ng/well; antibody 0.123 ug/mL
[7] = molecular target: T2, Claudin 18.2 VLP; assay: ELISA, coated antigen 200 ng/well; antibody 1.111 ug/mL
[8] = molecular target: T2, Claudin 18.2 VLP; assay: ELISA, coated antigen 200 ng/well; antibody 3.333 ug/mL
[9] = molecular target: T2, Claudin 18.2 VLP; assay: ELISA, coated antigen 200 ng/well; antibody 100 ug/mL (so in the source)
[10] = molecular target: T2, Claudin 18.2 VLP; assay: ELISA, coated antigen 200 ng/well; antibody 0 ug/mL (blank well, background)
[11] = molecular target: T1, human Claudin18.2 expressed on cells; assay: phage flow cytometry, phage supernatant, PE anti-M13
[12] = molecular target: T3, Human Claudin-18.2 protein (human, UniProt P56856-2 1-261, limits assumed); assay: SPR (Biacore 8K), antibody captured on Protein A, Claudin-18.2 protein as analyte
T3 construct: Soluble analyte injected over captured antibodies in SPR

[13] = molecular target: T4, Claudin18.2 recombinant protein (His tag) (UniProt P56856-2 1-261, limits assumed); assay: ELISA, coated antigen 200 ng/well
T4 construct: also called Claudin18.2-his antigen; not shown: His tag

[14] = molecular target: T4, Claudin18.2 recombinant protein (His …); assay: ELISA, coated antigen 200 ng/well; antibody 0.37 ug/mL
[15] = molecular target: T4, Claudin18.2 recombinant protein (His …); assay: ELISA, coated antigen 200 ng/well; antibody 0.014 ug/mL
[16] = molecular target: T4, Claudin18.2 recombinant protein (His …); assay: ELISA, coated antigen 200 ng/well; antibody 0.041 ug/mL
[17] = molecular target: T4, Claudin18.2 recombinant protein (His …); assay: ELISA, coated antigen 200 ng/well; antibody 0.123 ug/mL
[18] = molecular target: T4, Claudin18.2 recombinant protein (His …); assay: ELISA, coated antigen 200 ng/well; antibody 1.111 ug/mL
[19] = molecular target: T4, Claudin18.2 recombinant protein (His …); assay: ELISA, coated antigen 200 ng/well; antibody 3.333 ug/mL
[20] = molecular target: T4, Claudin18.2 recombinant protein (His …); assay: ELISA, coated antigen 200 ng/well; antibody 0 ug/mL (blank well, background)
[21] = molecular target: T4, Claudin18.2 recombinant protein (His …); assay: ELISA, coated antigen 200 ng/well; antibody 100 ug/mL (so in the source)
[22] = molecular target: T4, Claudin18.2 recombinant protein (His …); assay: ELISA, coated antigen; upper end, tied by Table 3 to 1-hIgG1Fc on Claudin 18.2-his (196 nM)
[23] = molecular target: T2, Claudin 18.2 VLP; assay: ELISA, coated antigen; lower end, tied by Table 3 to 10-hIgG1Fc on the VLP (4.96 nM)

B1: 18-mIgG2aFc (Fc fusion)
chain: QVQLVESGGGLVQPGGSLRLSCAASGSILNLMTTGWYRQAPGKQRDLVATITFGGTTNYADAVKGRFTISRDNAKNTVYLQMNNLEPEDTAVYFCYLDYIFGFGDRRVAWDQGTQVTVSS
notes: Fusion antibody anti-Claudin18.2 VHH-mIgG2aFc; not shown: mouse IgG2a Fc (mIgG2aFc)
[1]
  EC50: 0.06 nM

B2: 8-hIgG1Fc (Fc fusion)
chain: QVQLVESGGGLVQPGGSLRLSCAASGSIFGLNFMGWWRQAPGSQRELVAIATSGGSIQYGDSVKGRFTISRDNAKNTVYLQMASLKPEDTAVYYCNVHTYDFLGRDYWGQGTQVTVSL
notes: VHH-hIgG1Fc recombinant antibody; also called 8-hlgG1 Fc; VHH-hIgG1Fc recombinant antibody of clone 8; not shown: human IgG1 Fc (hIgG1Fc)
[2]
  EC50: 0.61 µg/mL and 7.66 nM
[3]
  absorbance at 450 nm: 0.931
[4]
  absorbance at 450 nm: 0.326
[5]
  absorbance at 450 nm: 0.337
[6]
  absorbance at 450 nm: 0.474
[7]
  absorbance at 450 nm: 1.87
[8]
  absorbance at 450 nm: 2.1
[9]
  absorbance at 450 nm: 2.46
[10]
  absorbance at 450 nm: 0.289

B3: VHH clone 9 (phage-displayed) (VHH)
VHH: EVQLVESGGGLVQPGGSLRLSCAASGSIFGLNFMGWWRQAPGSQRELVAIATSGGSIQYGDSVKGRFTISRDNAKNTVYLQMANLKPEDTAVYYCNVHTYDFLGRDYWGQGTQVTVSL
notes: Tested as phage supernatant, detected with PE anti-M13; also called Clone ID 9
[11]
  binding result: binds

B4: VHH clone 11 (phage-displayed) (VHH)
VHH: QVQLVESGGGLVQPGGSLRLSCAASGNILSINYMGWYRQAPGKERELVAIITRGGSTTYAPSLKGRFTISGDNAKDTVYLQMNSLQPEDTAVYYCNFRINFGILGGLRDYWGQGTQVTVSS
notes: Tested as phage supernatant, detected with PE anti-M13; also called Clone ID 11
[11]
  binding result: binds

B5: VHH clone 3 (phage-displayed) (VHH)
VHH: QVQLVESGGGLVQAGDSVRLSCAASGQTLSNYNVAWFRQAPGKEREFVAGATWSGRITNYSDSVRGRFTISRDNAKNTVYLQMNSLGPGDTAVYHCAANSFQLGDKPGDYHYWGQGTQVTVSS
notes: Tested as phage supernatant, detected with PE anti-M13; also called Clone ID 3
[11]
  binding result: binds

B6: 5-mIgG2aFc (Fc fusion)
chain: QVQLVESGGGLVQTGGSLRLSCAASDSTFSSYIMGWFRQAPGKEREFVAGITWSGGIKDYADSVKGRFTIARDNAKNTVYLQMNSLKPEDAAIYYCAANAIQLTRRSGDYAYWGQGTQVTVSS
notes: Fusion antibody anti-Claudin18.2 VHH-mIgG2aFc; also called 5-mIgG Fc; 5-mlgG2a Fc; not shown: mouse IgG2a Fc (mIgG2aFc)
[1]
  EC50: 0.013 nM
[12]
  Kd: 3.02 nM
  koff: 0.000373 s⁻¹
  kon: 123000 M⁻¹ s⁻¹

B7: 5-hIgG1Fc (Fc fusion)
chain: QVQLVESGGGLVQTGGSLRLSCAASDSTFSSYIMGWFRQAPGKEREFVAGITWSGGIKDYADSVKGRFTIARDNAKNTVYLQMNSLKPEDAAIYYCAANAIQLTRRSGDYAYWGQGTQVTVSS
notes: VHH-hIgG1Fc recombinant antibody; also called 5-hlgG1Fc; VHH-hIgG1Fc recombinant antibody of clone 5; not shown: human IgG1 Fc (hIgG1Fc)
[2]
  EC50: 0.55 µg/mL and 6.87 nM
[13]
  EC50: 0.81 µg/mL and 10.1 nM
[3]
  absorbance at 450 nm: 0.942
[14]
  absorbance at 450 nm: 1.41
[4]
  absorbance at 450 nm: 0.274
[15]
  absorbance at 450 nm: 0.108
[5]
  absorbance at 450 nm: 0.275
[16]
  absorbance at 450 nm: 0.207
[6]
  absorbance at 450 nm: 0.39
[17]
  absorbance at 450 nm: 0.463
[7]
  absorbance at 450 nm: 1.86
[18]
  absorbance at 450 nm: 2.53
[8]
  absorbance at 450 nm: 2.14
[19]
  absorbance at 450 nm: 3.5
[9]
  absorbance at 450 nm: 2.35
[10]
  absorbance at 450 nm: 0.247
[20]
  absorbance at 450 nm: 0.057

B8: 5H1-mIgG Fc (Fc fusion)
chain: QVQLVESGGGLVQTGGSLRLSCAASDSTFSSYIMGWVRQAPGKGLEWVAGITWSGGIKDYADSVKGRFTIARDNAKNTVYLQMNSLKPEDAAIYYCAANAIQLTRRSGDYAYWGQGTQVTVSS
notes: Subclass printed only as mIgG Fc for this one; also called 5H1-mlgG Fc; H1-mlgG Fc; not shown: mouse IgG Fc (printed mIgG Fc)
[12]
  Kd: 7.21 nM
  koff: 0.000552 s⁻¹
  kon: 76600 M⁻¹ s⁻¹

B9: 5H2-mIgG2a Fc (Fc fusion)
chain: QVQLVESGGGLVQPGGSLRLSCAASDSTFSSYIMGWFRQAPGKGLEFVAGITWSGGIKDYADSVKGRFTIARDNSKNTLYLQMNSLRAEDAAVYYCAANAIQLTRRSGDYAYWGQGTLVTVSS
notes: also called 5H2-mIgG Fc; 5H2-mlgG2a Fc; not shown: mouse IgG2a Fc
[12]
  Kd: 3.32 nM
  koff: 0.000417 s⁻¹
  kon: 126000 M⁻¹ s⁻¹

B10: 1-hIgG1Fc (Fc fusion)
chain: EVQLVGSGGGLVQPGGSLRLSCAASGSILNLMTTGWYRQAPGKQRDLVATITFGGTTNYADSVKGRFTISRDKSKNTAYLQMDNLKPEDTAVYFCYADVIVGFQDRRVAWDAGTQVTVSS
notes: VHH-hIgG1Fc recombinant antibody; also called 1-hlgG1Fc; VHH-hIgG1Fc recombinant antibody of clone 1; not shown: human IgG1 Fc (hIgG1Fc)
[2]
  EC50: 1.46 µg/mL and 18.3 nM
[13]
  EC50: 15.7 µg/mL and 196 nM
[3]
  absorbance at 450 nm: 0.585
[14]
  absorbance at 450 nm: 0.216
[4]
  absorbance at 450 nm: 0.282
[15]
  absorbance at 450 nm: 0.066
[5]
  absorbance at 450 nm: 0.271
[16]
  absorbance at 450 nm: 0.07
[6]
  absorbance at 450 nm: 0.293
[17]
  absorbance at 450 nm: 0.1
[7]
  absorbance at 450 nm: 1.35
[18]
  absorbance at 450 nm: 0.473
[8]
  absorbance at 450 nm: 2.13
[19]
  absorbance at 450 nm: 1.08
[9]
  absorbance at 450 nm: 2.66
[21]
  absorbance at 450 nm: 2.36
[10]
  absorbance at 450 nm: 0.275
[20]
  absorbance at 450 nm: 0.06
[22]
  EC50: 200 nM

B11: 10-hIgG1Fc (Fc fusion)
chain: QVQLAESGGGLVQPGGSLRLSCAASGNILSINYMGWYRQAPGKERELVATITRGGTTNYQGDLKGRFIISGDNTKDTVYLQMNNLQPEDTAVYYCYFRINFGILGGLRDYWGQGTQVTVSS
notes: VHH-hIgG1Fc recombinant antibody; also called 10-hlgG1Fc; VHH-hIgG1Fc recombinant antibody of clone 10; not shown: human IgG1 Fc (hIgG1Fc)
[2]
  EC50: 0.4 µg/mL and 4.96 nM
[13]
  EC50: 4 µg/mL and 50 nM
[3]
  absorbance at 450 nm: 1.46
[14]
  absorbance at 450 nm: 0.476
[4]
  absorbance at 450 nm: 0.329
[15]
  absorbance at 450 nm: 0.063
[5]
  absorbance at 450 nm: 0.355
[16]
  absorbance at 450 nm: 0.084
[6]
  absorbance at 450 nm: 0.568
[17]
  absorbance at 450 nm: 0.172
[7]
  absorbance at 450 nm: 2.14
[18]
  absorbance at 450 nm: 1.06
[8]
  absorbance at 450 nm: 2.51
[19]
  absorbance at 450 nm: 2.15
[9]
  absorbance at 450 nm: 2.62
[21]
  absorbance at 450 nm: 3.38
[10]
  absorbance at 450 nm: 0.311
[20]
  absorbance at 450 nm: 0.054
[23]
  EC50: 4 nM

B12: 2-mIgG2aFc (Fc fusion)
chain: EVQLVESGGGLVQPGGSLRLSCAASGNILSINYMGWYRQAPGKERELVATITRGGSTNYQGNLKGRFIISGDNTKDTVYLQMNNLQPEDTAVYYCYFRINFGILGGLRDYWGQGTQVTVSS
notes: Fusion antibody anti-Claudin18.2 VHH-mIgG2aFc; also called 2-mIgG Fc; 2-mlgG2a Fc; not shown: mouse IgG2a Fc (mIgG2aFc)
[1]
  EC50: 0.02 nM
[12]
  Kd: 1.1 nM
  koff: 0.00052 s⁻¹
  kon: 471000 M⁻¹ s⁻¹

B13: VHH clone 14 (phage-displayed) (VHH)
VHH: EVQLVESGGGLVQPGGSLRLSCAASGSLFSIITMGWYRQAPGKQRELVATVTRGGRLNYGDSVKGRFTISSGNVENTLDLQMNNLKPEDTAVYYCNAILESGNFWGRGTQVTVSS
notes: Tested as phage supernatant, detected with PE anti-M13; also called Clone ID 14
[11]
  binding result: binds

B14: VHH clone 4 (phage-displayed) (VHH)
VHH: EVQLVESGGGLVQPGGSLRLSCAASGQFFSLNYLAWYRQAPGSQRELIALVSSGGSTQYGDSVKGRFTISRDNAKNTVYLQMASLKPEDTAVYYCNLHTYDFLGRDYWGQGTQVTISS
notes: Tested as phage supernatant, detected with PE anti-M13; also called Clone ID 4
[11]
  binding result: binds
